From patent publication US20160040133A1 (published 2016) come the findings set out here.

The experiment has as its target T1, B2 C-9ASM (pAD-GAL4 fusion, yeast two-hybrid prey) (flock house virus).
T1 construct: Carries 9 alanine substitutions at the C-terminus; also called FHV B2 c-9ASM
The experiment can be described thus: yeast two-hybrid (Table 1: colony -, β-GAL White).

B1: PAZ domain of Arabidopsis Dicer-like protein 1 (DCL1) (pBD-GAL4 fusion, yeast two-hybrid bait) (other)
chain: MKLLSSIEQACDICRLKKLKCSKEKPKCAKCLKNNWECRYSPKTKRSPLTRAHLTEVESRLERLEQLFLLIFPREDLDMILKMDSLQDIKALLTGLFVQDNVNKDAVTDRLASVETDMPLTLRQHRISATSSSEESSNKGQRQLTVSEVEEDLSKGKLMMADGCMVAEDLIGKIVTAAHSGKRFYVDSICYDMSAETSFPRKEGYLGPLEYNTYADYYKQKYGVDLNCKQQPLIKGRGVSYCKNLLSPRFEQSGESETVLDKTYYVFLPPELCVVHP
notes: domain: BD;domain: PAZ domain; PAZ domain amplified by PCR and inserted into SalI and PstI digested pBD-GAL4 cam; also called DCL1-PAZ; PAZ domain of DCL1
As for B1, the binding result is reported as “no binding”.
